Test results published in patent US9435807B2, “Use of leucyl tRNA synthetase” (Medicinal Bioconvergence Research Center, priority 2011, dated 2016).
Changes are numbered by the printed parent chain. Names may count otherwise.

B1: His-LRS-(759-1176): His-tagged fragment of leucyl tRNA synthetase, residues 759-1176 (protein)
chain: MADAGILRLYTWVEWVKEMVANWDSLRSGPASTFNDRVFASELNAGIIKTDQNYEKMMFKEALKTGFFEFQAAKDKYRELAVEGMHRELVFRFIEVQTLLLAPFCPHLCEHIWTLLGKPDSIMNASWPVAGPVNEVLIHSSQYLMEVTHDLRLRLKNYMMPAKGKKTDKQPLQKPSHCTIYVAKNYPPWQHTTLSVLRKHFEANNGKLPDNKVIASELGSMPELKKYMKKVMPFVAMIKENLEKMGPRILDLQLEFDEKAVLMENIVYLTNSLELEHIEVKFASEAEDKIREDCCPGKPLNVFRIEPGVSVSLVNPQPSNGHFSTKIEIRQGDNCDSIIRRLMKMNRGIKDLSKVKLMRFDDPLLGPRRVPVLGKEYTEKTPISEHAVFNVDLMSKKIHLTENGIRVDIGDTIIYLVH
modifications: left off: small tags and cut ends
B2: H844A: LRS (759-1176 a.a) fragment with alanine mutation H844A in the putative GAP motif (protein, UniProt Q9P2J5 759-1176, looked up, variant H844A)
chain: B1 chain with H86A
B3: R845A: LRS (759-1176 a.a) fragment with alanine mutation R845A in the putative GAP motif (protein, UniProt Q9P2J5 759-1176, looked up, variant R845A)
chain: B1 chain with R87A

What was measured:
[1] = target: T1, LRS-(1-1176) / RagD binding (Homo sapiens, UniProt Q9NQL2); test: ELISA for binding between LRS and RagD; conditions: GST-RagD on plate coated with His-LRS-(1-1176), fragment added during incubation
T1 construct: Purified GST-RagD was incubated with His-LRS-(1-1176) coated on a plate; made in house; host or cells: E. coli BL21(DE3) for His-LRS (pET 16a); E. coli BL21 for GST-RagD (pGEX4T3)
Experimental: FIGS. 13a and 13b show ELISA assay results for measuring binding affinity between LRS and RagD.
In FIG. 13b, the comparison result of binding affinity for control (GST), RagD and RagD+LRS-(759-1176) on a 96 well plate coated with LRS-(1-1176) is shown.
First, each fragment of LRS was synthesized by PCR amplification using the cDNA of LRS as a template and a primer set (Table 1) specific for each fragment. The PCR amplification was performed under the following conditions: predenaturation of the template DNA at 95° C. for 2 min; and then 30 cycles, each consisting of 30 sec at 95° C., 30 sec at 56° C., and 3 min and 30 sec at 72° C.; followed by final extension at 72° C. for 10 min. Each of the PCR products was digested with NdeI and BamHI and ligated into a pET 16a vector (Novagen) digested with the same restriction enzymes. E. coli BL21(DE3) cells were transformed with the vector and cultured to induce the expression of peptides. Each peptide expressed as a His-tag fusion protein was purified by Ni-chelating agarose. […]
A fragment of RagD was synthesized by PCR amplification using the cDNA of […] as a template and a primer set (Table 1) specific for each fragment. […] Each peptide expressed as a GST-tag fusion protein was purified by GSH agarose. […]

RagD GTPase = target: T2, RagD GTPase (Homo sapiens, UniProt Q9NQL2); test: In vitro GTPase assay; type: biochemical; conditions: LRS (759-1176 a.a) fragment incubated with RagD, 37° C.
T2 construct: made in house; host or cells: LRS fragment: E. coli BL21(DE3), pET 16a
Experimental: In FIG. 7a, the indicated amounts of Histagged LRS (759-1176 a.a) fragment were incubated with 0.15 pM RagD for 20 min at 37° C. The error bars represent mean S.D. (n=3).
In FIG. 7b, his-tagged LRS fragments (0.3 μM) were incubated with RagD for the indicated times. The error bars represent mean S.D. (n=3).
In FIG. 7d, the effects of LRS WT and mutants on GTP hydrolysis of RagD is shown. Purified LRS WT (759-1176 a.a) fragment or mutants (H844A, R845A) fragments were incubated with RagD for 20 min at 37° C. The error bars represent mean S.D. (n=3).
GTPase assays were conducted in assay buffer (20 mM piperazine-N,N9-bis(2-ethanesulfonic acid), 20 mM HEPES, 5 mM MgCl2, 125 mM NaCl, 5 mM KCl at pH 7.0, 0.5 mM GTP) containing 0.1% bovine serum albumin in a final volume of […] using GTPase assay kit (Innova Biosciences) according to manufacturer's instructions.

T2 sequence (Q9NQL2 whole entry, the tested form may be a part): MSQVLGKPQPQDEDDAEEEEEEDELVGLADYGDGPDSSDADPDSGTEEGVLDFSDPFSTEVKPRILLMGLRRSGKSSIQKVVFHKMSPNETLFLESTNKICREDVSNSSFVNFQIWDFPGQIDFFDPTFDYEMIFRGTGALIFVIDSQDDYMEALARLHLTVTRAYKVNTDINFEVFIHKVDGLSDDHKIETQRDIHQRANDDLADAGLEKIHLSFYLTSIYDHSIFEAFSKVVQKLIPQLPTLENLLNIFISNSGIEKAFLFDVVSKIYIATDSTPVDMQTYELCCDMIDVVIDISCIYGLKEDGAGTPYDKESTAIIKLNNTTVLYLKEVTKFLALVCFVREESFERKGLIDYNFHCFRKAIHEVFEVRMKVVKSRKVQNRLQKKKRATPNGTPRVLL
T1 sequence (Q9NQL2 whole entry, the tested form may be a part): as above

Molecule | binding between RagD and LRS-(1-1176) [1] | binding between RagD and LRS-(1-1176) ([1]; listed as LRS-(759-1176)) | GTP hydrolysis by RagD GTPase (GAP activity) (RagD GTPase)
B1 | inhibited | decreased the binding affinity | enhanced GTP hydrolysis by RagD GTPase in dose- and time-dependent manner
B2 |  |  | lost their GAP activity
B3 |  |  | lost their GAP activity
